T1: hNpr3 (Homo sapiens, UniProt P17342)
T1 construct: host or cells: FreeStyle293 cells (transient transfection)
T1 sequence (P17342 27-540 isoform P17342-2 limits assumed): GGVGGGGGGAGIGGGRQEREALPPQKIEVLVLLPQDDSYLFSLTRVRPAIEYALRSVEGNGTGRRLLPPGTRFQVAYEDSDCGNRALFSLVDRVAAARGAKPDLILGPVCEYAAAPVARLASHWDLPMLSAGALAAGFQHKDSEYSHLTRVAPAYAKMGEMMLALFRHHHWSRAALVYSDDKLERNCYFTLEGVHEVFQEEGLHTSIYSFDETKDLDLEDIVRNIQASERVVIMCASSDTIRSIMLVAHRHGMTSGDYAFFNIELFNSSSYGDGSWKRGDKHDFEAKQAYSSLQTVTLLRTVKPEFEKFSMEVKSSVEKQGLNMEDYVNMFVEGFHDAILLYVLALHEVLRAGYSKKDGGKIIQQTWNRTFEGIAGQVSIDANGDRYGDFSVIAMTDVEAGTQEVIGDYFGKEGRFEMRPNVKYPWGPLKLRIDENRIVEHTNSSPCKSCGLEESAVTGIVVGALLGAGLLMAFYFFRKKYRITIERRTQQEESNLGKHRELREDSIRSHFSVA


Biological target: T1, hNpr3
Assay: Binding of biotin-labeled mMusclin to hNpr3-expressing FreeStyle293 cells (PE-labeled Streptavidin staining), with competition by unlabeled ligands
Details: for change in the binding of labeled mMusclin in the presence of a known NPR3 ligand: competitor at 10 μM; for change in the binding of labeled mMusclin in the presence of a known NPR3 ligand / change in the binding of labeled mMusclin in the presence of the unlabeled protein: BK- or BC-labeled mMusclin 0.5 μg/ml, hNpr3-expressing FreeStyle293 cells; for change in the binding of labeled mMusclin in the presence of the unlabeled protein: competitor at 100 μg/ml; for binding of labeled mMusclin to cells transfected with hNpr3 expression vector: 0.5 μg/ml labeled mMusclin, 4° C. 30 minutes, 0.3 μg (Low) or 1.0 μg (high) hNpr3 vector per 1.0×10^6 FreeStyle293 cells
Procedure: A hNpr3 expression vector (hNpr3/pCMV6-XL4, NM_000908 Clone #PL1154_A07) was purchased from OriGene. 0.3 μg (Low) or 1.0 μg (high) of the hNpr3 expression vector was transfected transiently per 1.0×10^6 FreeStyle293 cells by a conventional method; 48 hours later, the cells were collected and suspended in PBS-1.0% BSA at 5×10^6 cells/ml. A 1-ml portion of each cell lyzate was incubated with a final concentration of 0.5 μg/ml of BK-mMusclin or BC-mMusclin at 4° C. for 30 minutes; after 1 time of washing, the lyzate was stained with PE-labeled Streptavidin, and the cells bound to each Musclin were analyzed. Also, incubation was performed in the presence of 100 μg/ml full-length mMusclin, mCA, or His-Tyr-Cys-mMusclin, or 10 μM ANP (Atrial Natriuretic Peptide, Rat, Mouse), CANP (Atrial Natriuretic Peptide 4-23—NH2 Des-[Gln18 Ser19 Gly20 Leu21 Gly22], Rat), or LANP (Atrial Natriuretic Peptide 104-126 Des-[Cys105 Cys121], Rat) (Phoenix Pharmaceuticals, Inc.), whereby changes in the binding of labeled mMusclin were examined.

Molecule	change in the binding of labeled mMusclin in the presence of the unlabeled protein	change in the binding of labeled mMusclin in the presence of a known NPR3 ligand	further results
Atrial Natriuretic Peptide, Rat, Mouse (SLRRSSCFGGRIDRIGAQSGLGCNSFRY) [ANP, known ligand of the NPR3 molecule (Phoenix Pharmaceuticals, Inc.), reference compound]	–	the binding nearly disappeared	–
Atrial Natriuretic Peptide 104-126 Des-[Cys105 Cys121], Rat (SFGGRIDRIGAQSGLGNSFRY) [LANP, known ligand of the NPR3 molecule (Phoenix Pharmaceuticals, Inc.), reference compound]	–	the binding nearly disappeared	–
Atrial Natriuretic Peptide 4-23—NH2 Des-[Gln18 Ser19 Gly20 Leu21 Gly22], Rat [CANP, reference compound]	–	the binding nearly disappeared	–
BK-labeled mMusclin: labeled mMusclin incorporating about 5 molecules of biotin/1 molecule of mMusclin (Sulfo-NHS-LC-Biotin) (protein) LASQEFGTASLQSPPTAREEKSATELSAKLLRLDDLVSLENDVFETKKKRSFSGFGSPLDRLSAGSVEHRGKQRKAVDHSKKRFGIPMDRIGRNRLSSSRG	–	–	binding of labeled mMusclin to cells transfected with hNpr3 expression vector: bound dependently on the amount of the hNpr3 gene introduced into the cells
BC-labeled mMusclin: His-Tyr-Cys-mMusclin labeled with about 1 molecule of biotin at the introduced Cys residue (Maleimide PEO2 Biotin) (protein) MGSSHHHHHHSSGLVPYGCHMLASQEFGTASLQSPPTAREEKSATELSAKLLRLDDLVSLENDVFETKKKRSFSGFGSPLDRLSAGSVEHRGKQRKAVDHSKKRFGIPMDRIGRNRLSSSRG	–	–	binding of labeled mMusclin to cells transfected with hNpr3 expression vector: bound dependently on the amount of the hNpr3 gene introduced into the cells
musclin: skeletal muscle specific secretory protein (protein, UniProt P61366 28-133, looked up) Osteocrin: VDVTTTEAFDSGVIDVQSTPTVREEKSATDLTAKLLLLDELVSLENDVIETKKKRSFSGFGSPLDRLSAGSVDHKGKQRKVVDHPKRRFGIPMDRIGRNRLSNSRG	–	–	bindability of musclin to natriuretic peptide receptors (NPR1, NPR2, NPR3) (summary statement): binds specifically to the receptor NPR3

Further lines, with some results ahead:

change in the binding of labeled mMusclin in the presence of the unlabeled protein	Molecule	change in the binding of labeled mMusclin in the presence of a known NPR3 ligand	further results
the binding nearly disappeared	mCA: C-Terminal mMusclin (mCA) protein, cleaved from thioredoxin fusion (SFSGFGSPLDRLSAGSVEHRGKQRKAVDHSKKRFGIPMDRIGRNRLSSSRG)	–	–
the binding nearly disappeared	full-length mMusclin: purified full-length mouse musclin protein, cleaved from thioredoxin fusion, expressed in Escherichia coli (protein) LASQEFGTASLQSPPTAREEKSATELSAKLLRLDDLVSLENDVFETKKKRSFSGFGSPLDRLSAGSVEHRGKQRKAVDHSKKRFGIPMDRIGRNRLSSSRG	–	–
the binding nearly disappeared	His-Tyr-Cys-mMusclin: His-tag Tyr Cys mouse musclin protein, ORF of SEQ ID NO:8 (protein, His-tag, Tyr, Cys) MGSSHHHHHHSSGLVPYGCHMLASQEFGTASLQSPPTAREEKSATELSAKLLRLDDLVSLENDVFETKKKRSFSGFGSPLDRLSAGSVEHRGKQRKAVDHSKKRFGIPMDRIGRNRLSSSRG	–	–

— US20110104705A1, “Musclin receptor and use thereof” (Takeda Pharmaceutical Company Limited, priority 2006, published 2011)
